Measurements taken from article PMC5399792.

Test system: Nc1nc2c(ncn2[C@@H]2O[C@H](COP(=O)(O)O[C@H]3[C@@H](O)[C@H](n4cnc5c(N)ncnc54)O[C@@H]3CO)[C@@H](O)[C@H]2O)c(=O)[nH]1
Experiment: purified protein, by the assay type
Conditions: pH 7.4; 24.0 °C

With “influenza B polymerase initiating RNA synthesis at the vRNA promoter (vPol) (Influenza B virus (B/Memphis/13/2003))” the Km was 58 ± 18 µM.
